Data reported in patent US20200148768A1.

Target: T1, human BTN1A1-ECD-His6 (human), Q13410
T1 chain: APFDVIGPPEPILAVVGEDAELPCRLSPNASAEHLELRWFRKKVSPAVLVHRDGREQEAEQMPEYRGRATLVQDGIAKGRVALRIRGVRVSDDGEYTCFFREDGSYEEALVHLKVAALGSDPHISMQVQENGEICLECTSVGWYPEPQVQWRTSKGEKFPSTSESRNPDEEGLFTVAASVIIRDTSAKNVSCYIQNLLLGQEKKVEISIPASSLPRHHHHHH
Assay: SPR (Biacore), antibody on mIgG capture chip, BTN1A1-ECD-His 2-64 nM
Conditions: remark: other sources report otherwise

B1: STC810 (antibody, V domains shown)
VH: EVQLQQSGPELVKPGASVKISCKASGYTFTHYNMDWVKQSHGKSLEWIGYIYPSNGGTGYNQKFKSRATLTVDKSSSTAYMELHSLTSEDSAVYYCARGAYHYGSSYAYWYFDVWGAGTTVTVSS
VL: DIQMTQTTSSLSASLGDRVTISCSASQDISNYLNWYQQKPDETVKLLISYTSSLHSGVPSRFSGSGSGTDYSLTISNLAPEDIATYYCQQSSKLPFTFGSGTELEIKRA
modifications: here or on the partner: N-glycosylated (PNGase F sensitive)
Q: How did the Kd turn out when B1 was run?
A: The Kd was 12.4 nM.
